This is an account of results in patent US20150079112A1 (SAMSUNG ELECTRONICS, published 2015).

In general, Kd refers to the equilibrium constant for the complex coming apart.

For assay [1], the target named is T1, Ang2 protein (R&D systems) (human, UniProt O15123 19-496).
T1 sequence: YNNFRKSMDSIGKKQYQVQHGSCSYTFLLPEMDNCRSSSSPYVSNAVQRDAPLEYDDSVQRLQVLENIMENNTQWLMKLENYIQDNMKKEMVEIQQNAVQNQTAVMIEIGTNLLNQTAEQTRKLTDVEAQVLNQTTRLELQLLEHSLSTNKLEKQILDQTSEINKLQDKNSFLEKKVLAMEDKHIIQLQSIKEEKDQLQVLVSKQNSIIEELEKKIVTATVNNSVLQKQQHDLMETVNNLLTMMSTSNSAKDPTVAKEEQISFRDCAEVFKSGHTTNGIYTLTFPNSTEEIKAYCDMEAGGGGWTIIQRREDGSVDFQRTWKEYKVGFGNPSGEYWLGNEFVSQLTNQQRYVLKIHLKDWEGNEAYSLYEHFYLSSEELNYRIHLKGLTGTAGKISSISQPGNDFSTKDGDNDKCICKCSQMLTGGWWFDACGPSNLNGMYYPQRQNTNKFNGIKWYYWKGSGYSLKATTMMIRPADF
Description: cell-based or functional assay.

A further assay has as its target T2, BSA (bovine, UniProt P02769).
T2 construct: also called Bovine serum albumin; BSA (Sigma)
Description: ELISA: coated BSA, 10D6 2 µg/ml with or without FLAG-Ang2, detected with anti-mouse IgG-HRP (OD450). The procedure:
A 96-well MaxiSorp™ flat-bottom plate (Nunc) was coated with 4 ug/ml of Tie2-Fc (R&D systems) or BSA (Sigma). Then, the plate was washed five times with 0.05% (v/v) Tween-20-containing PBS (Phosphate Buffer Saline) and blocked with 1% (v/v) BSA (Bovine serum albumin; Sigma)-containing PBS at a room temperature for 2 hours. 0.25 ug/ml of Ang2 and 2 ug/ml of antibody 10D6 were added to each well of the plate, which was allowed to react at a room temperature for 2 hours and then washed five times with PBST. After that, an anti-mouse IgG antibody (Sigma) conjugated with HRP diluted in 1% (v/v) BSA-containing PBS at a ratio of 1:5,000 (v/v) was added in an amount of 100 ul to each well to react at a room temperature for 1 hour and then, the plate was washed five times with PBST. Lastly, 100 ul (microliter) of TMB substrate (Cell Signaling) was added to each well of the plate to induce color development for 3 min. and then, the reaction was ceased by the addition of 100 ul of Stop solution (Cell Signaling) and OD450 values were measured on a plate reader (Molecular Devices).
For orientation: An ELISA detects its analyte on a solid surface through an enzyme-linked reagent.

In assay [2] the target is mutant Ang2 protein, A449 substituted with alanine, FLAG-tagged at its N-terminal (human) (UniProt O15123). The assay can be described thus: ELISA, coated antibody 1000 nM, 250 ng FLAG-tagged mutant Ang2, anti-FLAG-HRP, OD450.
The target in assay [3] is T3, recombinant hAng2 (C-His, R&D Systems) (human, UniProt O15123 19-496).
T3 construct: also called human Ang2 protein
T3 sequence: T1 sequence
The assay can be described thus: SPR, BIAcore T100; hAng2 (C-His) captured on anti-His antibody on a CM5 chip, antibody flowed from 100 nM in twofold dilutions. The procedure:
The binding affinity of the above antibody to human Ang2 protein was measured by an SPR method using a BIAcore T100 (GE Healthcare). The SPR method uses refractive index change of light which passes a sensor chip according to the state of materials coated onto the sensor chip, and if an antigen or an antibody is flowed onto a chip coated with the antigen or antibody, it causes changes in refractive index due to their binding and Kd values are thus calculated from the measured values.
First, anti-His antibody was immobilized on a CM5 sensor chip (GE healthcare) up to 8,000 RU levels using a pH 5.0 acetate solution and an amine coupling kit (GE Healthcare). 6 μg/ml of a recombinant hAng2 (C-His, R&D Systems) protein was flowed onto the chip to be captured at 100 to 200 RU levels.
Background: In SPR one partner is held on a chip, and binding of the other changes the refractive index at the surface.

T2 sequence (P02769 25-607 limits assumed): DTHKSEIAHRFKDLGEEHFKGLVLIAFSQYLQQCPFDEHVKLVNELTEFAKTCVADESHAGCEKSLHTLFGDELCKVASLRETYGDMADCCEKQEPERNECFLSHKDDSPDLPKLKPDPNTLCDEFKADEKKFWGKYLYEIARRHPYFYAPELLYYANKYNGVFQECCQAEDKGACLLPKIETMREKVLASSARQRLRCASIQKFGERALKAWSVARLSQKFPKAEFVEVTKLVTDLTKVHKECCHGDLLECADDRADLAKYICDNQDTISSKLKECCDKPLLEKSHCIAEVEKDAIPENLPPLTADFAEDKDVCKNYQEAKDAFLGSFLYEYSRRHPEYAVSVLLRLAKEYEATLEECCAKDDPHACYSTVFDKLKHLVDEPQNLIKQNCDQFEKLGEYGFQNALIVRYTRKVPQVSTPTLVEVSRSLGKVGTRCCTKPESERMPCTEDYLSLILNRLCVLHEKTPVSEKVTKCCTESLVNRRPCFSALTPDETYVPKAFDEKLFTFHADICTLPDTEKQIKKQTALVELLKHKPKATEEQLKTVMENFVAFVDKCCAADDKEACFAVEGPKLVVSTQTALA

B1: SAIT-ANG2-AB-m10D6 (antibody, V domains shown)
VH: DVQLQESGPGLVKPSQSLSLTCTVTGYSITSDYAWNWIRQFPGNKLEWMGYINYSGNTDYNPSLKSRSSITRDTSKNQFFLQLNSVTTGDTATYYCARGNFEGAMDYWGQGTSVTVSS
VL: SIVMTQTPKFLLVSAGDRVTITCKASQSVSNDVAWYQQKPGQSPKLLIYYASNRYPGVPDRFTGSGYGTDFTFTISTVQAEDLAVYFCQQDYSSPWTFGGGTKLEIK
notes: also called antibody 10D6; anti-Ang2 antibody (10D6)
In the case of B1, in assay [1], the “Tie2 phosphorylation effect relative to control antibody RG” value was approximately 8.6 fold and the “Tie2 phosphorylation level (pTyr/Tie2 ratio), HUVEC, 60 nM antibody with Ang2” value came out at 180%. The binding result with BSA was “no binding (tested: 2 µg/ml)”. Besides, the binding affinity (%) with mutant Ang2 against the binding affinity with the native Ang2 in assay [2] turned out to be 97.9%. Moreover, the Kd in assay [3] is 8 nM.
